These results are taken from publication doi:10.1101/2020.10.28.359091 (bioRxiv, 2020).

Where two headings read alike, the source gives them in different places. No end group written: not given here. *: point of attachment. FITC = O=C1OC2(c3ccc(O)cc3Oc3cc(O)ccc32)c2ccc(NC(=S)*)cc21

Assay [1] addresses RXR/RAR LBD heterodimer (mouse RXRα LBD with human RARα LBD) (human | mouse) (UniProt P10276). Kind of assay: fluorescence polarisation. Background: Fluorescence polarisation rises when a labelled molecule tumbles more slowly, as on binding a larger partner.
Assay [2] has the same target. Kind of assay: fluorescence polarisation. This is another data set of the same source.
The target in assay [3] is T1, RARα ligand-binding domain (RAR LBD) (human, UniProt P10276-1 176-421).
T1 sequence: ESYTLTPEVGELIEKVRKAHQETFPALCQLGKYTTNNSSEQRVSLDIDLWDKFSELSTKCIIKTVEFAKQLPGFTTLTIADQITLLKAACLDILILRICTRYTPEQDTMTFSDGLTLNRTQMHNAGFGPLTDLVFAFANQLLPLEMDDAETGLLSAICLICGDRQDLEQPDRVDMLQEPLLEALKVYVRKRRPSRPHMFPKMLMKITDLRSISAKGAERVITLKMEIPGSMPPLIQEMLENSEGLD
Kind of assay: fluorescence polarisation.

Assay [4] has as its target T1, RARα ligand-binding domain (RAR LBD). Kind of assay: crystal structure.
Assay [5] has the same target. Kind of assay: crystal structure. This is another data set of the same source.

In the case of “TIF2 nuclear receptor interaction domain (TIF2_(NRID)), residues 624-773, wild type (domain or fragment)”, the Kd (usually the equilibrium constant for the complex coming apart) in assay [1] is 0.2 µM. In addition, in assay [2], the dissociation constant (Kd) worked out at 1.34 µM and the fold decrease of Kd against the apo heterodimer worked out at 9 fold.

On to {FITC}-LTERHKILHRLLQEGSP [FITC-SRC1 NR2 peptide (FITC-LTERHKILHRLLQEGSP)], for which the binding result in assay [3] is “binds”.

Regarding RHKILHRLLQEGSPSDITTLSVEPDKK [SRC1 NR2-Ext peptide (RHKILHRLLQEGSPSDITTLSVEPDKK)], the binding result in assay [4] was “binds”.

KHKILHRLLQDSSSPVDLAKLTAEATGK [TIF2 NR2-Ext peptide (K686-K713), unlabelled]: the binding result in assay [5] is reported as “binds”.

Regarding KHKILHRLLQDSS [TIF2 NR2 peptide (KHKILHRLLQDSS), unlabelled], the binding result in assay [3] is on record as “binds”.

On to RHKILHRLLQEGS [SRC1 NR2 peptide (RHKILHRLLQEGS), unlabelled], for which, in assay [3], the binding result is listed as “binds”.
